Values of other authors, collected in patent US9163073B2, “Chemically and thermodynamically stable insulin analogues and improved methods for their production” (AMIDEBIO LLC, priority 2013, dated 2015).

Legend:
breast cancer = conditions: in vivo
[1] = molecular target: insulin receptor over the IGF-1R (Homo sapiens, UniProt P06213)
[2] = after one year in acidic formulations

| selectivity for its own receptor over the IGF-1R [1] | Substance | induction of breast cancer (breast cancer) | AsnA21 deamidation [2] |
| --- | --- | --- | --- |
|  | AspB10 insulin: insulin analogue with AspB10 substitution, relatively high affinity for the IGF-1R | induce breast cancer |  |
| > 100 fold | native insulin: native two-chain human insulin (A chain SEQ ID NO 2, B chain SEQ ID NO 3) |  | 20-30% |
